Among the data in a protein production outcome set (Wang et al. 2014) are protein production values, retold here.
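Note: failed if final PepcDB status was selected cloned or expressed and not failed if soluble or beyond.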

The nature of the series: label from the status in PepcDB records.
As for “MSTVRSIYYRGSLEHCNYTCSYCPFGRKSVSADTTEDQEALDRFISRIGGWKYGSLRILIIPYGEAMIHRYYREGIMRLAAMPHVIGVSCQTNLSFSVSRFLDEAEAEQADVSKFRFWASYHPEMVGVGEFASKVEMLRAAGIGVCAGAVGDPSAKEQIRKLRQLLDPSVYLFVNAMQGLRKPLSEEDIRFFGEIDNLFDYDRRNAKACLDGCVGGRETLFIDRKGDMYACPRSGIRMGNFYDDSTSDFQPFCLRKVCDCYIAFSNLCDTPLRRMMGDGALWRIPERKKVEAVFFDVDGTLTDAQGRIPDRTVSVLEYMAKRLPLYLSTALPVSHAKKRLGNVFGLFSGGVFADGGLLCYGETIECVPIANPMTAGFPGCRVTRYTREGKVFKYAVLAPNTREAVRWLTELDEEAYQLYQEGRLLTVVDSKASKKNGLITLCARLGISLREVLVVGNTMHDWPMMSVAGYSCAVMDAEEKLRKLSGYVLNPDSIPVFFDILEHHHHHH”, the protein production result is “failed”.
To “MSVCPTNFDEKVECPFVDRKEFTEAFEKAFNNIDQQNYSILVYYGVAGIGKTSLRKELPALLEKHNESDLHTRVIWTSIDFATEQYKQPYKFLEVLSSQLRQKYNVKFNSFDIALATYWKKINPHNPLVKENYSEGSIVHDILDVCDEFVPANLIPNVYNLTKNLPKHYQKWVLKREEDISGLQNLEPTEIYKRLPVYLAHDLADHLQNTSELAVIFIDTYEALWEKERDKGSFNSRDEWLRKLIEKIQKSCLWVICGKESLRWEEVDEDWKNYLDQRKIGKLPEKDALDLLKQCGITEEDIQNVLIESSEGVPYYLELSIDIYRKIKKKKQPTPENFAKVPEGIFCRFVKYLDREEKETLKVLSVPRYWNRELFKILVEKFNTGYPATSFSELHSFSFMDVDDKGKCSMHQLMRKSLKDYQDQDLKKEVHNFMLDFYSNQLKDIDIKEITPEHEIALTEAFYHAKEALEAEDLLKWFISVSDPFNRAAFWQLITPMYEEMLQILEAKHGPEHKDIVTTLNILDVLYYKMGEYKKALQFSERALAIGETILGVQHPDVATSLDNLAGLYESMGNYKQALQLSERALEIYEKVLGPQHRDVAITLDNLAGLYESMGEYEKALIFYQRTIEIKEKVLGPQHSNFATSLDNLAVLYRQMGEYEKALQLSQRALEIYEKVLGPQHPDIATTLNNIALLYDSMGDYQKTLPLYQRALEINEKVFGPQYLGIATTLNNLAGFYRRVGDYEKALSLSQRSLEIDEKVLGSQHPDVARTLNSLALIYENIGDYEKALAFYQRSLDIREKVLGPQHPDVGRTLNNLARLYEIMGDHEKALTLYQRTIEIKEKALGPQHPDVATILNNLAGLHYRIGEYKKALPLYQRALDIVEKKLGQNQPNSVVIKNNYNRLLSKMSENEKK” belongs “failed”; to “MSVEIKRVDKHHCLDLVGIFIELERYYFGDKAASEQDLANYLSHQVFSEHSGVKVIAAVEHDKVLGFATYTIMFPAPKLSGQMYMKDLFVSSSARGKGIGLQLMKHLATIAITHNCQRLDWTAESTNPTAGKFYKSIGASLIREKEYYRFEGNGLNKLAKSL”, “not failed”.
To “MSVEKKVNDLLQKMTIEEKVYQLTSILIQDILENDKFSPQKAKEKIPHGIGQITRLAGASNLSPQEAAKTANEIQKFLIENTRLGIPAMIHEESCSGFMAKGATVFPQSIGVACTFDNEIVEELAKVIRTQMKAVGAHQALAPLIDVARDARWGRVEETFGEDPYLVANMAVSYVKGLQGDDIKKGIVATGKHFVGYAMSEGGMNWAPVHIPERELREVYLYPFEVAVKVAGLKSIMPAYHEIDGIPCHANRKLLTDIARNEWGFDGIYVSDYSGVRNLLDYHKSVKTYEEAAALSLWAGLDIELPKIECFTEEFIKALKEGKFDMTLVDAAVKRVLEMKFRLGLFDNPYIKTDGIVELFDNKEQRQLSRRVAQESMVLLKNDNFLPLSKDSKKIAVIGPNANSVRNLLGDYSYPAHIATLEMFFIKEDKGVGNEEEFVRNVINMKSIFEAIKDKVSSNTEVVYAKGCDVNSQDRSGFEEAKKAAADADAVILVVGDKAGLRLDCTSGESRDRASLRLPGVQEDLVKEIVSVNPNTVVVLVNGRPVALDWIMENVKAVLEAWFPGEEGANAVADVLFGDYNPGGKLAISFPRDVGQVPVYYGHKPSGGKSCWHGDYVEMSTKPLLPFGYGLSYTTFEYKNFAIEKEKIGMDESIKISVEIENTGKYEGDEIVQLYTRKEEYLVTRPVKELKGYKRVHLKPGEKKKVVFELYPDLFAFYDYDMNRVVTPGVVEVMIGASSEDIKFTGTFEIVGSKKDAKELKHYFSKVWCE” belongs “failed”; to “MSVGTSSAPGARQVPRPLAPRTSGDPADLGIDPDQLPDGLVVADEHGRVVCFNAAAVRITATPAAEALGQLLESALPLEDLEGRRWWQLTDPYGGLAIRVRQPERNLLLPGGREVLVTARYVRAERLGPVHRVVVTLRDTEARRRTERSHAELIATVAHELRSPLTSVKGFTATLLAKWERFTDDQKRLMLETVDADADRVTRLIAELLDISRIDSGRLEVRRQPVDIGAAVGRHIQAYVASGLEADRFLLRLAQPLPDLWADPDKVDQVLSNLLENAVRHGEGTVTIDVTPTASPREGEDTGTSVTVSDEGAGIPEESMNRVFTRFWRGSKRGGTGLGLYIVKGIVEAHGGTITVGRAPGGGAEFRFTLPVAAPAYLT”, “failed”.
To “MSVKAYLELIRVHNVVGSAVSAFMGYVIATTWKFTPLFFLPLLVVSLIAAGGYVINDVYDIEVDKINKPERPLPSGRIAVNIARRFSIVLFAVGLIISIPLGLIPFGFALITIVLLYEYARSLKKLGLVGNFIVALTSALSAYYGGLASGSLLGNFIIPTIYIFFFTLSREFVKGIEDIEGDKRNGVNTLAVKLGEKSTWIIAKIILGILIFTSPLPYFLGFNVIYLIGILALDVLLVYILILHNTIESATKARSLMKIYAIGTLIVFTLGSLRI” belongs “failed”.
With “MSVKMKKCSREDLQTLQQLSIETFNDTFKEQNSPENMKAYLESAFNTEQLEKELSNMSSQFFFIYFDHEIAGYVKVNIDDAQSEEMGAESLEIERIYIKNSFQKHGLGKHLLNKAIEIALERNKKNIWLGVWEKNENAIAFYKKMGFVQTGAHSFYMGDEEQTDLIMAKTLILEHHHHHH”, the protein production entry is “not failed”.
Then “MSVKVMKRLGTLLLLVCVLIILIPQSASAHAYVVKSNPTENETLKKAPSVVKIEFDEDIQVSRFNTLYVRDTSGKRVDLKDAHIDKKNKKLLEAGLKENLKNGLYSIQWKAISADGHPIQGVIPFRIGLAEAETDDVQVEEMGYVPQIDMIMERGILYTSFSLFIGVLFFNLIMYKGNATSVRSRSKNIIWISLFGILISLLFNLPLQAKINADVSWLEAFNPLLLKETLQLSVFGYVWITQMVLISTLIIVTYFAVKHEKFSSFKVWSIPILLFIGLLVMKAFNSHAYGLKFKDIAVVMDFLHLFAASLWVGGLSSIILLLRNEDNKWHMYWDMIKRFSPWATGAVIVILITGLFNSTFFIPTIHSLFDTKYGLVLLTKILLFIFMGILGIIHYVKGRMRAQQGLGATVKVEFIIGIIIFVIVAFMTNVQTPPMPPTGPFTESKQLDNGYEMTLNVSPNRVGQNIFHITLKDENGQPVTDMEQIILTTQSLDMNMGKGSFKVSAVSPGEYEAEGMYINMTGNWNIQVHGLTKSLDSFDTDYKFIVGGR”, with “failed”; and “MSVLAIIFLLNLKPTIYSIVGIFLIIILDVTVAVALYFLLRPVSKNISMLMSLFRIVYAAIFTTALYKIHDLTAFYSILDLGYIFFGIHLFLLGFLVYKSGYMPKWLGALIFIASTGYIIDPLLRFSGYAVEIGMYTFFGEVLFAFWLVIKGRKLSEVVSTP”, with “failed”; and “MSVLQGFEEVNMTAPRGKLSMLVTKDVVRFNKATAIALGYPAYVKVLINDKTKQFAVKPCKQSDANAVKFSKPEGKQTASVNIKDVMVLDSVLKYFKLDEPQDGQVTFQSMQGTFYPEERVAMFSVADAKAGVMKKRGRKKSESEEA”, with “failed”.
Then “MSVNMDELRHQVMINQFVLAAGCAADQAKQLLQAAHWQFETALSTFFQETNIPNSHHHH”, with “not failed”.
Then “MSVNTNEGSKNLWKDLPLELLSSVMTFLEIKDNVRASVVCKSWFEAAVSVRVIDKSPWLMYFPETKNTYDFYDPSNCKKYTMELPKSLVGFIVRYSKDGWLLMSQEDSSHFVLFNPFTMDVVALPFLHLFTYYQLVGFSSAPTSSECVVFTIKDYDPGHVTIRTWSPGQTMWTSMQVESQFLDVDHNNVVFSNGVFYCLNQRNHVAVFDPSLRTWNVLDVPPPRCPDDKSWNEGKFMVGYKGDILVIRTYENKDPLVFKLDLTRGIWEEKDTLGSLTIFVSRKSCESRTYVKDGMLRNSVYFPELCYNEKQSVVYSFDEGRYHLREHDLDWGKQLSSDNIWIEPPKNAFELV”, with “failed”.
Turning to “MSVPTTMFRLTGRDYPPAKLSHASLIIIDAQKEYLSGPLKLSGMDEAVANIARLLDAARKSGRPIIHVRHLGTVGGRFDPQGPAGQFIPGLEPLEGEIVIEKRMPNAFKNTKLHETLQELGHLDLIVCGFMSHSSVSTTVRRAKDYGYRCTLVEDASATRDLAFKDGVIPAAQIHQCEMAVMADNFACVAPTASLI”, the protein production result was “not failed”.
Then “MSVQLKCDAVNCVYNRSHLCSAEEIEVQGGETTGGDATFCGTFSSKSLGNFVSSLGNMNYSGSLKQAVSAEPIMDPKVHCNAVNCTYNDQRYCHADQVEIRNEVSHTAEETECQTFYPKMSLEHHHHHH”, with “failed”.
“MSVQTIERLQDYLLPEWVSIFDIADFSGRMLRIRGDIRPALLRLASRLAELLNESPGPRPWYPHVASHMRRRVNPPPETWLALGPEKRGYKSYAHSGVFIGGRGLSVRFILKDEAIEERKNLGRWMSRSGPAFEQWKKKVGDLRDFGPVHDDPMADPPKVEWDPRVFGERLGSLKSASLDIGFRVTFDTSLAGIVKTIRTFDLLYAEAEKGS”: the protein production entry is reported as “not failed”.
Then “MSVSGQPVLRAAVVTLQGRREDNQDFAAIAEPSPRDAAARGFVAAVADGIGGARGGRVAAEVSVRSFMEAYYGLSETLGMQQLLDRCLGSANRWVHAMGRLDPELAHMGTTFSGLIFRGRRAYLVHVGDSRIYRLRGDEPELLTSDHTLSGPGLDHVLYRAVGLDPGLRIDYSVYPLEPHDRFLLCSDGLHGSLQQEQIREILQERATPETTAEALARLAFEQGSQDNITALVVDVIALPPAEKQSLRLAIESLPLLDLPEVGDEVDGFRLERLLSSGRYSALFLAADTLGQDKPVVVKFPHPRVASEREYYDAFVREAWIGARVKSPWVGEILEQTPGRQSRLYSVMPFYPGASLEHELARRPRIGLEAGIDLALKLCKAVHALHRQQIVHRDIKPDNVLLDPEGGLKLLDLGIARLPAWDEDQADPIPGTPSYMAPEMFQGERGSIATDVFALGVTLYRTFAGGAYPYGEVEPFSTPRFGSPRPLTAHRPDLPAWLDAVLARAIAADPAQRPADAVELAYELEAGLEKGGGRRPPRRPLPLYERNPLQFWKAVAALLLALLAMAGLRLSLSCRPPSEAASRNNPLIHDNGDSR”, with “failed”; and “MSVTTTETTGTAPALPRKTLGLAMIGLAVMMTLLHYAGLLPAWLHRLPEAIIPPFATWLDAIFNFVKDDLGLLALTRLLTDGLEVVLDATANLLFGKRRWPNIGPIPWSAIAAMTAVVGYYLGGWRMALLAGGTFVWTAMIGQWDIAMQTMSVLVVAAPLAFAIGLVLGISAWKSPSFDAVLRPVLAVLQTLPFFTYLLPAVIFFKVGPTAGAVATTVYAIPPMILMTTLGLQKVSPEVVEAGKMSGCTRWQMLRHVYIPAARTEILVGVNQVIMLCLAMVVLTAFIGMPGLGAKLLAMMGSFKIGRSFEIGVTIVLLAVTLDRMSKAWVVKLPEHFERGTPFWIRHKFLLMAIGAFVGFTLIAQVVPILSEVGRKQSWSQGKEIDTLIKGFLAIDAVQAITNSIRYVLNIWVLNPLRDFMLSIPTVAFVLFISAAALLVAGRREAVLAAAFFGLVALTGWWDRSVITLYSVLAAVSIALLLGVPIGVVAARKEKTANAVLLACDTAQTFPSFIYLIPAIMLFGITATSVVMSILIFSMVPLVRYTIEGLRNVPDEMTEAADMAGATRMQKLWNVQLPLALPTMAVGFNQAIMFAFFMVIIAAFIGTQDLGQELQRTLAGTDLGKNFVLGICVTLMALTFDMVIMKWADDKKARLGLN”, with “failed”.
